T1: Gluc1-TAp73α (human, UniProt O15350 1-636)
T1 construct: also called full-length TAp73α; source: HEK293T, transfected (pSPICA vector), in cells; not shown: Gluc1 (fragment of Gaussia princeps luciferase), N-terminal, kept
T1 sequence (looked up): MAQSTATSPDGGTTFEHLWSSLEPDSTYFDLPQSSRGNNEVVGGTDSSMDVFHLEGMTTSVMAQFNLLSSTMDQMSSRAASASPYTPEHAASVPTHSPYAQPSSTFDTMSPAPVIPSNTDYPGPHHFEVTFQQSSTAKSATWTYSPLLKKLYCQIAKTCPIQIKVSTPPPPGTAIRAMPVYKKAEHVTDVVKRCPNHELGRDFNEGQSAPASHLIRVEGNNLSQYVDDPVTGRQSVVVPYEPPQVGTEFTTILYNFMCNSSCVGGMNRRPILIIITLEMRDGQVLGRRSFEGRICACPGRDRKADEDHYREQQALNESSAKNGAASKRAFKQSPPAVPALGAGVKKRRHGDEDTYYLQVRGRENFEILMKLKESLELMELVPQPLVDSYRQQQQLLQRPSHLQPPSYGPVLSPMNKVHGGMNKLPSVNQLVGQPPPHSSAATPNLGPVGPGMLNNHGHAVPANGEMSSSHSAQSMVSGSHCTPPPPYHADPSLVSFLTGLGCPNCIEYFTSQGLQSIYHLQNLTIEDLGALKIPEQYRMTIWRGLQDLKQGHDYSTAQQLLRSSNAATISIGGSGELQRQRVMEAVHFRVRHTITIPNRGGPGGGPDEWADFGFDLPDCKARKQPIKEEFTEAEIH

T2: Gluc1-ΔNp73α FL (human, UniProt O15350-8 1-587)
T2 construct: ΔNp73α isoform of p73, whole ORF, 587 residues by the printed numbering; numbers count on: ΔNp73α; source: HEK293T, transfected (pSPICA vector), in cells; not shown: Gluc1 (fragment of Gaussia princeps luciferase), N-terminal, kept
T2 sequence (looked up): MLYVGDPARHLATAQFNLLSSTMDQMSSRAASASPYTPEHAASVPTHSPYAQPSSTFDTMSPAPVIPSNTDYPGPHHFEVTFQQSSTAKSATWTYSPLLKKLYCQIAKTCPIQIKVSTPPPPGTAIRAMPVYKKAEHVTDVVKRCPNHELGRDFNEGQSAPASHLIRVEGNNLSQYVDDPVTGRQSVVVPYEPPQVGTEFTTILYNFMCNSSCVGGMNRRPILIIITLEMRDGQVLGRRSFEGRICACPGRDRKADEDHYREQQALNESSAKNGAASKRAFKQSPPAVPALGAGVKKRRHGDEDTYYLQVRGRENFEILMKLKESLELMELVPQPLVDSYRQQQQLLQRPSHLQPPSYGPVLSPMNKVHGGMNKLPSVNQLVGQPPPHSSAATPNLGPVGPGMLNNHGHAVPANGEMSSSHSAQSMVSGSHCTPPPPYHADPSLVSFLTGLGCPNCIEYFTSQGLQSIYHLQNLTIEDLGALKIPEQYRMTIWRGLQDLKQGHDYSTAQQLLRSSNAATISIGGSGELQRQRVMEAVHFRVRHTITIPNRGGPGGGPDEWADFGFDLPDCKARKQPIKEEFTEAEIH


Key:
Assay in all cases: split reporter (BiFC, NanoBiT); Gaussia princeps protein complementation assay (GPCA): Gluc1 and Gluc2 N-terminal fusions co-transfected in HEK293T, luminescence of lysates after 48 h as normalized luminescence ratio (NLR); pairs count as interacting if NLR is above 5
Conditions in all cases: partners not purified
[1] = target: T1, Gluc1-TAp73α
[2] = target: T2, Gluc1-ΔNp73α FL
[3] = target: T3, Gluc1-E2F4 (human, UniProt Q16254 1-413)
T3 construct: human E2F4, whole ORF (bought from Addgene); source: HEK293T, transfected (pSPICA vector), in cells; not shown: Gluc1 (fragment of Gaussia princeps luciferase), N-terminal, kept
T3 sequence (Q16254 whole entry, the tested form may be a part): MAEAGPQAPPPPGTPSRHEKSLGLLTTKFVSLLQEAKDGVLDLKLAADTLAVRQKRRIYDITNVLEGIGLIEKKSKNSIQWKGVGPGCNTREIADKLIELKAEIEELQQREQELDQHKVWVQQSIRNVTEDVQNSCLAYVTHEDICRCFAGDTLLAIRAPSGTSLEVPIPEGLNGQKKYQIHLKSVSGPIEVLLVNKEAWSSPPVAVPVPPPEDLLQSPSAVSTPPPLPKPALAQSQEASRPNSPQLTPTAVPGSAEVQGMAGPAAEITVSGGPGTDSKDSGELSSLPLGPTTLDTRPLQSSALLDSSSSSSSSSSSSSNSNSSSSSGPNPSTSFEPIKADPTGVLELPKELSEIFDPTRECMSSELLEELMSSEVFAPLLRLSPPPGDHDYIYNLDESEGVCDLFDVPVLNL

Row | Binder | binding response relative to that obtained with ΔNp73α [1] [%] | normalized luminescence ratio (NLR) [2] | normalized luminescence ratio (NLR) [3]
1 | Gluc2-E2F4 FL (natural protein, human E2F4, whole ORF (bought from Addgene), 413 residues by the printed numbering; source: HEK293T, transfected (pSPICA vector), in cells; not shown: Gluc2 (fragment of Gaussia princeps luciferase), N-terminal, kept) not shown | ~50 | > 20 | –
2 | Gluc2-DP1 (natural protein, human, UniProt Q14186 1-410, looked up, human DP1, whole ORF (bought from Addgene); source: HEK293T, transfected (pSPICA vector), in cells; not shown: Gluc2 (fragment of Gaussia princeps luciferase), N-terminal, kept) MAKDAGLIEANGELKVFIDQNLSPGKGVVSLVAVHPSTVNPLGKQLLPKTFGQSNVNIAQQVVIGTPQRPAASNTLVVGSPHTPSTHFASQNQPSDSSPWSAGKRNRKGEKNGKGLRHFSMKVCEKVQRKGTTSYNEVADELVAEFSAADNHILPNESAYDQKNIRRRVYDALNVLMAMNIISKEKKEIKWIGLPTNSAQECQNLEVERQRRLERIKQKQSQLQELILQQIAFKNLVQRNRHAEQQASRPPPPNSVIHLPFIIVNTSKKTVIDCSISNDKFEYLFNFDNTFEIHDDIEVLKRMGMACGLESGSCSAEDLKMARSLVPKALEPYVTEMAQGTVGGVFITTAGSTSNGTRFSASDLTNGADGMLATSSNGSQYSGSRVETPVSYVGEDDEEDDDFNENDEDD | – | – | ~500

— paper PMC10117100, “The E2F4/p130 Repressor Complex Cooperates with Oncogenic ΔNp73α To Inhibit Gene Expression in Human Papillomavirus 38 E6/E7-Transformed Keratinocytes and in Cancer Cells” (mSphere, 2023)
